Measurements: US20190016796A1 (UNIVERSITAT ZURICH, published 2019)

Tests used:
murine interleukin-2 = molecular target: T1, murine interleukin-2 (mouse, UniProt P04351 21-169); test: SPR, NARA1 amine-coupled to a GLM chip, mouse IL-2 injected at 10 to 0.041 nM
T1 construct: also called mouse IL-2; mIL-2
T1 sequence (looked up): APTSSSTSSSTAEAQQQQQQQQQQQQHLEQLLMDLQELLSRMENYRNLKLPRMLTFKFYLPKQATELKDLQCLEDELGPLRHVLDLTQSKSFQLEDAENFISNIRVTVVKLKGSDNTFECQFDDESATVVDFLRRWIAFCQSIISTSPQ

human interleukin-2 = molecular target: T2, human interleukin-2 (human, UniProt P60568 21-153); test: SPR, antibody amine-coupled to GLM chip, hIL-2 as analyte (100 nM, three-fold dilutions)
T2 construct: Teceleukin is named only for the in vivo treatments; also called hIL-2; human IL-2
Method: For this experiment an amine coupling GLM chip was used. The activation of the carboxylic acid groups in the chip was done using a mix of 1-ethyl-3-3-dimethylaminopropyl carbodiimide hydrochloride (EDC at 0.2 M) and sulfo N-hydroxysulfosuccinimides (s_NHS at 0.05M) at 30 μl/min for 420 seconds (s). […] Deactivation was followed adding ethanolamine HCl at 30 μl/min for 300 s. Finally human IL-2 was added at different concentrations (starting from 100 nM and followed by three-fold dilutions) at 100 μl/min, 600 s association, and 240 s dissociation.
In order to characterize the binding properties of the anti-human IL-2 mAbs the binding to human interleukin-2 was tested with surface plasmon resonance binding assays.

T2 sequence (P60568 21-153 limits assumed): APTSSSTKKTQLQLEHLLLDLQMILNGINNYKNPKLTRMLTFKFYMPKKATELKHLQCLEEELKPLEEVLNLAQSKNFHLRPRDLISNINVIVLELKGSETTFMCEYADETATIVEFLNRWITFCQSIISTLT

binding result (murine interleukin-2): no binding (tested: 10 nM)
Kd (human interleukin-2): 1.2 nM
koff (human interleukin-2): 2.08e-05 s⁻¹
B1: monoclonal antibody NARA1 (antibody, mouse IgG2a, kappa, V domains shown)
VH: QVQLQQSGAELVRPGTSVKVSCKASGYAFTNYLIEWVKQRPGQGLEWIGVINPGSGGTNYNEKFKGKATLTADKSSSTAYMQLSSLTSDDSAVYFCARWRGDGYYAYFDVWGAGTTVTVSS
VL: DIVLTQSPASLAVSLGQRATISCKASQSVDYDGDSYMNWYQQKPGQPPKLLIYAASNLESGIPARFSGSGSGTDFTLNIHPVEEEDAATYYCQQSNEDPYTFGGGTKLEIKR
notes: also called hIL-2 mAb
